From IntAct's records for PubMed 24413684

B1: Programmed cell death protein 4 (Homo sapiens), Q53EL6 (parent)
chain: MDVENEQILNVNPADPDNLSDSLFSGDEENAGTEEIKNEINGNWISASSINEARINAKAKRRLRKNSSRDSGRGDSVSDSGSDALRSGLTVPTSPKGRLLDRRSRSGKGRGLPKKGGAGGKGVWGTPGQVYDVEEVDVKDPNYDDDQENCVYETVVLPLDERAFEKTLTPIIQEYFEHGDTNEVAEMLRDLNLGEMKSGVPVLAVSLALEGKASHREMTSKLLSDLCGTVMSTTDVEKSFDKLLKDLPELALDTPRAPQLVGQFIARAVGDGILCNTYIDSYKGTVDCVQARAALDKATVLLSMSKGGKRKDSVWGSGGGQQSVNHLVKEIDMLLKEYLLSGDISEAEHCLKELEVPHFHHELVYEAIIMVLESTGESTFKMILDLLKSLWKSSTITVDQMKRGYERIYNEIPDINLDVPHSYSVLERFVEECFQAGIISKQLRDLCPSRGRKRFVSEGDGGRLKPESY

Variants of: B1
Settings: with if4a1_human EIF4A1, P60842
Sequence of if4a1_human EIF4A1, P60842 (P60842 whole entry): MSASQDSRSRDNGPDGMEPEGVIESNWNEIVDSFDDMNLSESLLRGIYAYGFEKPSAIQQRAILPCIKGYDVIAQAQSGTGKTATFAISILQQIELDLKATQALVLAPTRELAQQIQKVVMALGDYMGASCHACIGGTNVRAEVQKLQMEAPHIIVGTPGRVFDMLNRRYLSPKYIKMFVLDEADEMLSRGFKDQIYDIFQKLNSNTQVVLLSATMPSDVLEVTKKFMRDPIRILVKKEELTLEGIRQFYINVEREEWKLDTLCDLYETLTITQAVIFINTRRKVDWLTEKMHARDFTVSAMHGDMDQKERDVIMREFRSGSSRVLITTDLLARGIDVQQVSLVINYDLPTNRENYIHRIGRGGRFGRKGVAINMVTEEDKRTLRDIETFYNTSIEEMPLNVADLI

Q: For D418A, which “effect of a mutation on the interaction” value is on record?
A: The value was “decreasing interaction”.

Q: How did the “effect of a mutation on the interaction” value turn out when D253A;D418A was run?
A: Its value is “decreasing interaction”.
